One assay has as its target T1, miniBP-3 fusion protein (human).
T1 construct: Uncleaved fusion, made in E. coli BL21 from pET21a and purified on IgG Sepharose
Description: BIAcore competition, bp15 preincubated with miniBP-3 fusion, injected over immobilised biotinylated IGF-I. (SPR reads the build-up and loss of mass on a sensor chip optically.)

For assay [1], the target named is T2, native-sequence human IGFBP-3 (human, UniProt P17936 28-291).
T2 construct: also called wild-type IGFBP-3; full-length IGFBP-3
Briefly: BIAcore competition: bp15 (15 nM to 100 µM) pre-incubated 1 h with 20 nM IGFBP-3, injected over immobilised biotinylated IGF-I (bIGF-I, squares); blocked ligand IGF-I; one-site competition fit.

The target in assay [2] is T2, native-sequence human IGFBP-3. Briefly: BIAcore competition: bp15 (15 nM to 100 µM) pre-incubated 1 h with 20 nM IGFBP-3, injected over immobilised biotinylated IGF-II (bIGF-II, triangles); blocked ligand IGF-II; one-site competition fit.

Broadly, the IC50 is the concentration that inhibits the measured activity by half. High values mean a need for much substance, low ones inhibition by little substance.

B1: peptide bp15 (peptide)
peptide: SEEVCWPVAEWYLCN
notes: Identified by phage display (Lowman et al. 1998); also called bp15 peptide
Regarding B1, in the assay with miniBP-3 fusion protein, the binding result is “binds”. Moreover, the IC50 in assay [1] stood at 105 nM; in assay [2], 147 nM.

For the origin of these results see patent US20050148035A1 (Genentech, published 2005).
